Assay results reported in US7666446B2, “Oral formulation for delivery of poorly absorbed drugs” (ProCarrier, Inc., priority 2004, dated 2010).

How the values were obtained:
[1] = rat, in vivo
Method: To determine absorption from the intestine, male Sprague Dawley rats weighing 250-300 g with free access to water were fasted for about 18 h prior to experiments. These rats were anesthetized and maintained with Ketamine/Xylazine (([…])/(80 mg/kg)) by intraperitoneal injection. The small intestine was exposed by a midline abdominal incision. A small incision was made in the stomach to insert a polyethylene tube (i.d. 0.76 mm, o.d. 1.22 mm, Clay Adams), toward the middle duodenum, which was closed at the exposed end by a stopcock to prevent drainage of drug solution from the duodenum. Blood samples were taken with a heparinized syringe through the jugular vein catheter at predetermined time intervals. After collecting, samples were coagulated for about 90 min and then were centrifuged for 10 min at 6000 rpm. The supernatant was removed and stored at −20° C. Samples were analyzed for hGH protein levels with a Human Growth Hormone ELISA Kit (coated plate, ICN Diagnostics) according to the manufacturer's protocol.
For the controls, either glucosamine 40 mg/kg plus sucrose laurate 40 mg/kg (i.e., 100 units of carrier) or 10 mg/kg of rhGH (Advanced Protein Technologies Inc., Suwon, Korea) were administered per intraduodenum. […] To evaluate the effect of varying the amount of carrier administered, the amount of rhGH was held at 3 mg/kg rhGH and the Tmax was measured. […] In the case of intraduodenal administration, the controls were fixed at 10 units of carrier. The amount of rhGH was varied to include 1, 3, and 10 mg/kg of rhGH.
Finally, to evaluate the effectiveness of the carrier itself, the type of carrier was varied while maintaining the same level of rhGH (3 mg/kg).

[2] = Intraduodenal absorption of rhGH/PEP solutions, rhGH by ELISA (Example 3); assay type: in vivo, male Sprague-Dawley rats; conditions: rats, rhGH administered without PEP solution
Method: RhGH solutions containing a promoter (glucosamine or poly-L-lysine), an enhancer (sucrose laurate 16), and a protector (methylcellulose) were prepared in water according to the proportions set out in Table 2.
The abdominal muscle was sutured under the skin. […] Four rats were in each treatment group. […]

[3] = Decomposition test: rhGH concentration by ELISA after shaking; assay type: physicochemical
Method: A solution of rhGH (5 ng/mL) was prepared in 20 mM phosphate buffer. The phosphate buffer was prepared in triple-distilled, filtered water (0.22 μm filter), and its pH was adjusted to pH 7.4 with sodium hydroxide solution. Solutions of rhGH were shaken for 1 min at high speed with a vortex mixer (Scientific Industries Inc.). After shaking, samples were equilibrated for specific time intervals at room temperature. Concentrations of rhGH were then determined by ELISA according to methods well known in the art.

rhGH: recombinant human growth hormone
Tmax ([1]; 3 mg/kg): less than 20 min
absorption of rhGH ([1]; 3 mg/kg): increased absorption
bioavailability ([1]; 3 mg/kg): 7.1%
peak serum rhGH concentration ([1]; sc, 0.1 mg/kg): 73 ng/mL
rhGH in serum [2]: not detected
Concentration rhGH ([3]; 0 min, 5 ng/mL rhGH, phosphate buffer pH 7.4): 5 ng/mL
Concentration rhGH ([3]; 1 min after shaking, room temperature): 1.05 ng/mL
Concentration rhGH ([3]; 30 min after shaking, room temperature): 0.65 ng/mL
Concentration rhGH ([3]; 60 min after shaking, room temperature): 0.43 ng/mL
Concentration rhGH ([3]; 90 min after shaking, room temperature): 0.40 ng/mL
